For four molecules, % increase in fluorescence intensity results are on record in publication PMC2784006.

The test addresses HA-tagged Synaptic Cell Adhesion Molecule 1 (HA-SynCAM1), full length (mouse). Kind of test: Cell Adhesion Molecule / Receptor Recruitment Assay.

Sequence of HA-tagged Synaptic Cell Adhesion Molecule 1 (HA-SynCAM1), full length (mouse) (Q8R5M8 48-456): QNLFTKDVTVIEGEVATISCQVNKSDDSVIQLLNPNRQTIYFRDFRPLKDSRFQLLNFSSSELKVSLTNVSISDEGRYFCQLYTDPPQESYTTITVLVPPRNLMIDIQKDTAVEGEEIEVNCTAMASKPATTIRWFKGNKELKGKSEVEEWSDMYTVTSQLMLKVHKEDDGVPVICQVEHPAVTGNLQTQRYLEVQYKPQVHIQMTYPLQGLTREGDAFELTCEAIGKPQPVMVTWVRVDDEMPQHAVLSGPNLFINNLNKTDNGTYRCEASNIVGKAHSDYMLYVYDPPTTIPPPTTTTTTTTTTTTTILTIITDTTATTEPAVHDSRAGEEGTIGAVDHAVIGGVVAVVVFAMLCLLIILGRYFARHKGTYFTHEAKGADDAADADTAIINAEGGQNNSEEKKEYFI

In turn, “GFP-tagged erythrocyte protein band 4.1-like 3 (protein 4.1B), full length (4.1B-GFP) (natural protein)” displayed a % increase in fluorescence intensity at microspheres relative to background of 114%.
Then “Syntenin1-GFP (from UniProt O00560 1-298) (natural protein)”, with 91.8%.
Then “protein 4.1N, GFP tagged (4.1N-GFP) (from UniProt Q9Z2H5 1-879) (natural protein)”, with 100%.

B1: calcium/calmodulin-dependent serine protein kinase (CASK) (natural protein)
chain: MADDDVLFEDVYELCEVIGKGPFSVVRRCINRETGQQFAVKIVDVAKFTSSPGLSTEDLKREASICHMLKHPHIVELLETYSSDGMLYMVFEFMDGADLCFEIVKRADAGFVYSEAVASHYMRQILEALRYCHDNNIIHRDVKPHCVLLASKENSAPVKLGGFGVAIQLGESGLVAGGRVGTPHFMAPEVVKREPYGKPVDVWGCGVILFILLSGCLPFYGTKERLFEGIIKGKYKMNPRQWSHISESAKDLVRRMLMLDPAERITVYEALNHPWLKERDRYAYKIHLPETVEQLRKFNARRKLKGAVLAAVSSHKFNSFYGDPPEELPDFSEDPTSSGLLAAERAVSQVLDSLEEIHALTDCSEKDLDFLHSVFQDQHLHTLLDLYDKINTKSSPQIRNPPSDAVQRAKEVLEEISCYPENNDAKELKRILTQPHFMALLQTHDVVAHEVYSDEALRVTPPPTSPYLNGDSPESANGDMDMENVTRVRLVQFQKNTDEPMGITLKMNELNHCIVARIMHGGMIHRQGTLHVGDEIREINGISVANQTVEQLQKMLREMRGSITFKIVPSYRTQSSSCERDSPSTSRQSPANGHSSTNNSVSDLPSTTQPKGRQIYVRAQFEYDPAKDDLIPCKEAGIRFRVGDIIQIISKDDHNWWQGKLENSKNGTAGLIPSPELQEWRVACIAMEKTKQEQQASCTWFGKKKKQYKDKYLAKHNAVFDQLDLVTYEEVVKLPAFKRKTLVLLGAHGVGRRHIKNTLITKHPDRFAYPIPHTTRPPKKDEENGKNYYFVSHDQMMQDISNNEYLEYGSHEDAMYGTKLETIRKIHEQGLIAILDVEPQALKVLRTAEFAPFVVFIAAPTITPGLNEDESLQRLQKESDVLQRTYAHYFDLTIINNEIDETIRHLEEAVELVCTAPQWVPVSWVY
Regarding B1, the % increase in fluorescence intensity at microspheres relative to background is 123%.
